Measurements published in paper PMC9968969.

Tested on: [H][C@@]12COP(=O)(O)O[C@@]1([H])[C@@H](O)[C@H](n1cnc3c(=O)[nH]c(N)nc31)O2
Assay: purified protein
Details: […] MgCl2 in the reaction buffer catalytic site

Which Km does the source give for PDE5A (Homo sapiens) here?
The Km was 3.87 ± 0.12 µM.
